{"source": "paper PMC9637899", "about": "“Outer surface lipoproteins from the Lyme disease spirochete exploit the molecular switch mechanism of the complement protease C1s” (The Journal of Biological Chemistry, 2022)", "binders": {"B1": {"name": "ElpB_(182–378) (domain or fragment)", "chain": "QERKAKAEKEAKEKAERQKQEEQQKRKAEKEREEQRKEAEKRQVDNEIRTLTGKIDEINRNIDVIKEQTSVGAQGVIDRITGPVYDDFTDGNKAIYKTWGDLEDDNDEGLGKLLKELSDTRHNLRTKLNEGNKAYIIDTRSTEPQLKENVSVSEIKSDLDELKSKLEEVKEYLEDKDNFEEIKEYVAGSEDNYDEED", "notes": "ElpB (ErpB) of B. burgdorferi, residues 182-378; also called C-terminal domain of ElpB; not shown: His6 (from the vector pT7HMT), N-terminal, cleaved; c-Myc (from the vector pT7HMT), N-terminal, cleaved"}}, "target": "T1, activated C1s–CCP1–CCP2–SP (human, UniProt P09871 292-688)", "T1 construct": "human complement C1s, C-terminal domains CCP1, CCP2 and serine protease (SP); Cleaved by C1r into two chains (confirmed by reducing SDS-PAGE); Tag removal is inferred: only the c-Myc S632A form 'was not subjected to His-TEV cleavage'; also called wildtype C1s–CCP1–CCP2–SP", "T1 sequence": "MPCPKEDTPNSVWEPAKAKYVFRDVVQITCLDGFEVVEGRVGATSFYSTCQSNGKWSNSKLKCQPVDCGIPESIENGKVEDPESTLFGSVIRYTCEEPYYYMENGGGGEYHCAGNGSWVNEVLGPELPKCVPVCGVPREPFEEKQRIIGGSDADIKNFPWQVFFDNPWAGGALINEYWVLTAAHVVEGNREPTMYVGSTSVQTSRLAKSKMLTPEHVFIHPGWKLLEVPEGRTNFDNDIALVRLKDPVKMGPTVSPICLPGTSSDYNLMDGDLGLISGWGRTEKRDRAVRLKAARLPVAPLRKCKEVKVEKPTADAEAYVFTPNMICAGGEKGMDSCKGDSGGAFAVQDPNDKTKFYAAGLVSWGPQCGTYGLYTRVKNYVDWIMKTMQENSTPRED", "test": "SPR; Elp truncation amine-coupled to a CMD200 chip; multicycle twofold injection series of C1s enzyme or activated C1s–CCP1–CCP2–SP constructs from 200 nM; HBS-T Ca2+ (10 mM Hepes pH 7.3, 140 mM NaCl, 0.005% Tween-20, 5 mM CaCl2), 30 ul/min; K_(D, kin) from a kinetic and K_(D, ss) from a steady-state 1:1 (Langmuir) fit; triplicate", "details": "both partners purified", "data": [{"binder": "B1", "values": [{"measurement": "Kd", "result": "360 ± 17", "unit": "nM"}]}]}
